# Values joined by “and” are separate entries in the source; they are usually repeats but may differ in a detail not shown here. Identical values can stand only once.
# How the values were obtained:
# MCF7 cells = experiment: Proliferation assay (Cell Titer-Glo) with anti-IGFR1 antibody and a chemotherapeutic agent, MCF7 cells; type: cell-based
# Procedure: (§1) The ability of cells in culture to proliferate when exposed to varying concentrations of the 19D12/15H12 wild-type or 19D12/15H12 LCF/HCA anti-IGFR1 antibody and either paclitaxel, gefitinib, lonafarnib 4-hydroxy tamoxifen or doxorubicin was evaluated in this example.
# (§2) Cell Preparation. […] The cells were trypsinized, counted and resuspended at a concentration of 25000 cells/ml in 10% HI-FBS (heat-inactivated fetal bovine serum) RPMI medium containing NEAA (non-essential amino acids), L-Glu, MEM Vitamins and PS. 100 ul of cell suspension (2500 cells) was added to each well of a BD Falcon 96 well black, clear bottom TC treated plate. The cells were allowed to attach and spread overnight at 37° C. The 10% RPMI solution was replaced with 100 μl RPMI containing 2% HI-FBS containing NEAA, L-Glu, MEM Vitamins and PS.
# (§3) Solution Preparation. All assay reagents were prepared in RPMI containing 2% HI-FBS at 20× concentration and serial diluted for a total of 10 test concentrations per treatment. Every test point was prepared in triplicate on separate assay plates.
# (§4) Reagent 1 and 19D12/15H12 or 19D12/15H12 LCF/HCA were set up individually as dose responses as well as in combination with each other. Cell proliferation was measured on Day4.
# (§5) Assay. Cell proliferation was measured using the Promega Cell Titer-Glo Luminescent Cell Viability Assay (Promega Corp.; Madison, Wis.). This assay provided a method for determining the number of viable cells in culture based on quantitation of ATP in the culture, which indicates the presence of metabolically active cells.
# (§6) The assay reagents and assay plates were equilibrated to room temperature and prepared immediately before addition to the assay plates. One volume of assay reagent was added to each well of the assay plate and shaken on an orbital platform for at least ten minutes to allow for equilibration of the ATP reaction and to ensure total lysis of all cells in the assay plate. […] Luminescence was detected on Wallac 420 Plate Reader with stacker.
# (§7) The units in the tables (proliferation index) are arbitrary and are proportional to the number of viable cells observed in the culture under each respective condition.
# (§8) In Tables 2-6, “ug” indicates micrograms and “uM” indicates micromolar.
# H322 NSCLC cells = experiment: Proliferation assay (Cell Titer-Glo) with anti-IGFR1 antibody and a chemotherapeutic agent, H322 NSCLC cells; type: cell-based, human; settings: H322, Day4, replicates
# Procedure: as §1, §2, §3, §4, §5, §6, §7, §8
molecule,measurement,setting,value
"CC/C(=C(\c1ccc(O)cc1)c1ccc(OCCN(C)C)cc1)c1ccccc1 [4-hydroxy tamoxifen, 4-hydroxytamoxifen, reference compound]",proliferation index,MCF7 cells; 4-hydroxy tamoxifen alone 20000 ng/mL,80 and 72 and 87 and 71 and 61 and 67 and 70 and 92
"COc1cc2ncnc(Nc3ccc(F)c(Cl)c3)c2cc1OCCCN1CCOCC1 [Iressa, 4-(3-chloro-4-fluoroanilino)-7-methoxy-6-(3-morpholinopropoxy)quinazoline]",proliferation index,H322 NSCLC cells; Iressa alone 0.0512 nM,59448 and 76032 and 61018 and 59690 and 63252 and 63688 and 60730 and 74464 and 65802
same,proliferation index,H322 NSCLC cells; Iressa alone 0.256 nM,56752 and 73246 and 58760 and 59474 and 57314 and 58384 and 59448 and 66806 and 64854
same,proliferation index,H322 NSCLC cells; Iressa alone 32 nM,45712 and 58272 and 41264 and 40992 and 44162 and 42054 and 43124 and 45062 and 41426
same,proliferation index,H322 NSCLC cells; Iressa alone 160 nM,35044 and 43832 and 32072 and 32728 and 33532 and 35078 and 34864 and 36144 and 34946
same,proliferation index,H322 NSCLC cells; Iressa alone 4000 nM,27738 and 27810 and 24546 and 24376 and 26742 and 28156 and 24528 and 28442 and 27026
same,proliferation index,H322 NSCLC cells; Iressa alone 20000 nM,10818 and 11294 and 10994 and 9734
"19D12/15H12 LCF/HCA: monoclonal, fully-human anti-IGFR1 antibody: mature light chain F (SEQ ID NO: 2) paired with mature heavy chain A (SEQ ID NO: 4) (antibody, listed as Homo sapiens, V domains shown) VH: MEFGLSWVFLVAILKGVQCEVQLVQSGGGLVKPGGSLRLSCAASGFTFSSFAMHWVRQAPGKGLEWISVIDTRGATYYADSVKGRFTISRDNAKNSLYLQMNSLRAEDTAVYYCARLGNFYYGMDVWGQGTTVTVSS VL: MSPSQLIGFLLLWVPASRGEIVLTQSPGTLSVSPGERATLSCRASQSIGSSLHWYQQKPGQAPRLLIKYASQSLSGIPDRFSGSGSGTDFTLTISRLEPEDFAVYYCHQSSRLPHTFGQGTKVEIKRT",proliferation index,H322 NSCLC cells; antibody alone 0.000256 nM (Table 2 plates),73420 and 74154 and 83338 and 74108 and 84234 and 83206 and 80894 and 82674 and 71784
same,proliferation index,H322 NSCLC cells; antibody alone 0.0064 nM (Table 2 plates),61654 and 79014 and 72998 and 69060 and 64818 and 74862 and 76374 and 68206 and 70226
same,proliferation index,H322 NSCLC cells; antibody alone 0.8 nM (Table 2 plates),40944 and 47470 and 52010 and 49636 and 55228 and 53706 and 56984 and 49396 and 47080
same,proliferation index,H322 NSCLC cells; antibody alone 0.8 nM (Table 3 plates),49206
same,proliferation index,H322 NSCLC cells; antibody alone 4 nM (Table 2 plates),42312 and 48884 and 49992 and 50508 and 47256 and 56998 and 54966 and 51438 and 44700
same,proliferation index,H322 NSCLC cells; antibody alone 20 nM (Table 2 plates),44120 and 55106 and 50680 and 49038 and 56114 and 52446 and 51826 and 52490 and 48302
same,proliferation index,H322 NSCLC cells; antibody alone 20 nM (Table 3 plates),51960 and 58598 and 48444 and 49156 and 51020 and 48730 and 49684 and 45064 and 52120
same,proliferation index,H322 NSCLC cells; antibody alone 5.12E−05 nM (Table 2 plates),74408 and 87030 and 83636 and 79810 and 79650 and 90294 and 88940 and 86762 and 74996
"19D12/15H12: 19D12/15H12 wild-type anti-IGFR1 antibody (antibody, listed as Homo sapiens, V domains shown) VL: MSPSQLIGFLLLWVPASRGEIVLTQSPGTLSVSPGERATLSCRASQSIGSSLHWYQQKPGQAPRLLIKYASQSLSGIPDRFSGSGSGTDFTLTISRLEPEDFAVYYCHQSSRLPHTFGQGTKVEIKRT VH: MEFGLSWVFLVAILKGVQCEVQLVQSGGGLVKPGGSLRLSCAASGFTFSSFAMHWVRQAPGKGLEWISVIDTRGATYYADSVKGRFTISRDNAKNSLYLQMNSLRAEDTAVYYCARLGNFYYGMDVWGQGTTVTVSS",Proliferation of MCF7 cells,MCF7 cells; 19D12/15H12 0.00001024 nM + doxorubicin 0.00001024 ug/mL,101144
same,Proliferation of MCF7 cells,MCF7 cells; 19D12/15H12 0.00001024 nM + doxorubicin 0.0000512 ug/mL,102670
same,Proliferation of MCF7 cells,MCF7 cells; 19D12/15H12 0.00001024 nM + doxorubicin 0.000256 ug/mL,100293
same,Proliferation of MCF7 cells,MCF7 cells; 19D12/15H12 0.00001024 nM + doxorubicin 0.0064 ug/mL,95276
same,Proliferation of MCF7 cells,MCF7 cells; 19D12/15H12 0.00001024 nM + doxorubicin 0.8 ug/mL,5132
same,Proliferation of MCF7 cells,MCF7 cells; 19D12/15H12 0.00001024 nM + doxorubicin 4 ug/mL,12606
same,Proliferation of MCF7 cells,MCF7 cells; 19D12/15H12 0.00001024 nM + doxorubicin 20 ug/mL,7789
same,Proliferation of MCF7 cells,MCF7 cells; 19D12/15H12 0.0000512 nM + doxorubicin 0.00001024 ug/mL,111388
same,Proliferation of MCF7 cells,MCF7 cells; 19D12/15H12 0.0000512 nM + doxorubicin 0.0000512 ug/mL,106322
same,Proliferation of MCF7 cells,MCF7 cells; 19D12/15H12 0.0000512 nM + doxorubicin 0.000256 ug/mL,107406
same,Proliferation of MCF7 cells,MCF7 cells; 19D12/15H12 0.0000512 nM + doxorubicin 0.0064 ug/mL,93794
same,Proliferation of MCF7 cells,MCF7 cells; 19D12/15H12 0.0000512 nM + doxorubicin 0.8 ug/mL,5649
same,Proliferation of MCF7 cells,MCF7 cells; 19D12/15H12 0.0000512 nM + doxorubicin 4 ug/mL,11124
same,Proliferation of MCF7 cells,MCF7 cells; 19D12/15H12 0.0000512 nM + doxorubicin 20 ug/mL,6793
same,Proliferation of MCF7 cells,MCF7 cells; 19D12/15H12 0.000256 nM + doxorubicin 0.00001024 ug/mL,86861
same,Proliferation of MCF7 cells,MCF7 cells; 19D12/15H12 0.000256 nM + doxorubicin 0.0000512 ug/mL,76193
same,Proliferation of MCF7 cells,MCF7 cells; 19D12/15H12 0.000256 nM + doxorubicin 0.000256 ug/mL,74312
same,Proliferation of MCF7 cells,MCF7 cells; 19D12/15H12 0.000256 nM + doxorubicin 0.0064 ug/mL,70725
same,Proliferation of MCF7 cells,MCF7 cells; 19D12/15H12 0.000256 nM + doxorubicin 0.8 ug/mL,5698
same,Proliferation of MCF7 cells,MCF7 cells; 19D12/15H12 0.000256 nM + doxorubicin 4 ug/mL,13174
same,Proliferation of MCF7 cells,MCF7 cells; 19D12/15H12 0.000256 nM + doxorubicin 20 ug/mL,6667
same,Proliferation of MCF7 cells,MCF7 cells; 19D12/15H12 0.0064 nM + doxorubicin 0.00001024 ug/mL,60936
same,Proliferation of MCF7 cells,MCF7 cells; 19D12/15H12 0.0064 nM + doxorubicin 0.0000512 ug/mL,60524
same,Proliferation of MCF7 cells,MCF7 cells; 19D12/15H12 0.0064 nM + doxorubicin 0.000256 ug/mL,61820
same,Proliferation of MCF7 cells,MCF7 cells; 19D12/15H12 0.0064 nM + doxorubicin 0.0064 ug/mL,53583
same,Proliferation of MCF7 cells,MCF7 cells; 19D12/15H12 0.0064 nM + doxorubicin 0.8 ug/mL,4702
same,Proliferation of MCF7 cells,MCF7 cells; 19D12/15H12 0.0064 nM + doxorubicin 4 ug/mL,10648
same,Proliferation of MCF7 cells,MCF7 cells; 19D12/15H12 0.0064 nM + doxorubicin 20 ug/mL,7057
same,Proliferation of MCF7 cells,MCF7 cells; 19D12/15H12 0.8 nM + doxorubicin 0.00001024 ug/mL,70307
same,Proliferation of MCF7 cells,MCF7 cells; 19D12/15H12 0.8 nM + doxorubicin 0.0000512 ug/mL,64429
same,Proliferation of MCF7 cells,MCF7 cells; 19D12/15H12 0.8 nM + doxorubicin 0.000256 ug/mL,60055
same,Proliferation of MCF7 cells,MCF7 cells; 19D12/15H12 0.8 nM + doxorubicin 0.0064 ug/mL,56538
same,Proliferation of MCF7 cells,MCF7 cells; 19D12/15H12 0.8 nM + doxorubicin 0.8 ug/mL,4916
same,Proliferation of MCF7 cells,MCF7 cells; 19D12/15H12 0.8 nM + doxorubicin 4 ug/mL,11778
same,Proliferation of MCF7 cells,MCF7 cells; 19D12/15H12 0.8 nM + doxorubicin 20 ug/mL,7693
same,Proliferation of MCF7 cells,MCF7 cells; 19D12/15H12 4 nM + doxorubicin 0.00001024 ug/mL,61992
same,Proliferation of MCF7 cells,MCF7 cells; 19D12/15H12 4 nM + doxorubicin 0.0000512 ug/mL,57611
same,Proliferation of MCF7 cells,MCF7 cells; 19D12/15H12 4 nM + doxorubicin 0.000256 ug/mL,58980
same,Proliferation of MCF7 cells,MCF7 cells; 19D12/15H12 4 nM + doxorubicin 0.0064 ug/mL,53567
same,Proliferation of MCF7 cells,MCF7 cells; 19D12/15H12 4 nM + doxorubicin 0.8 ug/mL,4259
same,Proliferation of MCF7 cells,MCF7 cells; 19D12/15H12 4 nM + doxorubicin 4 ug/mL,12760
same,Proliferation of MCF7 cells,MCF7 cells; 19D12/15H12 4 nM + doxorubicin 20 ug/mL,8097
same,Proliferation of MCF7 cells,MCF7 cells; 19D12/15H12 20 nM + doxorubicin 0.00001024 ug/mL,59288
same,Proliferation of MCF7 cells,MCF7 cells; 19D12/15H12 20 nM + doxorubicin 0.0000512 ug/mL,60307
same,Proliferation of MCF7 cells,MCF7 cells; 19D12/15H12 20 nM + doxorubicin 0.000256 ug/mL,62242
same,Proliferation of MCF7 cells,MCF7 cells; 19D12/15H12 20 nM + doxorubicin 0.0064 ug/mL,54983
same,Proliferation of MCF7 cells,MCF7 cells; 19D12/15H12 20 nM + doxorubicin 0.8 ug/mL,5202
same,Proliferation of MCF7 cells,MCF7 cells; 19D12/15H12 20 nM + doxorubicin 4 ug/mL,10465
same,Proliferation of MCF7 cells,MCF7 cells; 19D12/15H12 20 nM + doxorubicin 20 ug/mL,7489
